Experimental data published in patent US20070020327A1.

Tests used:
HLA-A*2401 (human) [1] = assay: competition with a 125I-labelled standard peptide for purified HLA class I, bound and free peptide separated by gel filtration
HLA-A*2401 (human) [2] = assay: competition with 125I-labelled standard peptide for purified HLA, gel filtration
HLA-A*2401 (human) [3] = assay: inhibition of binding of a 125I-labelled standard peptide to purified HLA, gel filtration
HLA-A*2401 (human) [4] = assay: competition with a 125I-labelled standard peptide for purified HLA, gel filtration
[5] = biological target: HLA-A*2401 molecule, purified HLA class I (human); assay: competition with 125I-labelled probe peptide for purified HLA, gel filtration; relative binding
HLA-A*2401 (human) [6] = assay: competition with 125I-labeled probe peptide for purified HLA, gel filtration; settings: scale: ratio
HLA-A*2401 (human) [7] = assay: competitive inhibition of 125I-labelled standard peptide binding to purified HLA, gel filtration
HLA-A*2401 (human) [8] = assay: competition with a 125I-labelled standard peptide for purified HLA, gel filtration; value relative to the standard peptide
HLA-A*2401 (human) [9] = assay: competition with 125I-labelled standard peptide for purified HLA, gel filtration; relative binding

For “Kallikrein (hK2) peptide …, position 156, 10 amino acids”, which binding affinity ratio (IC50 of the standard peptide / IC50 of the test peptide) (HLA-A*2401 (human) [1]) is on record?
The binding affinity ratio (IC50 of the standard peptide / IC50 of the test peptide) was 0.0001.

How did the binding affinity ratio (IC50 of the standard peptide / IC50 of the test peptide) (HLA-A*2401 (human) [1]) turn out when “Kallikrein (hK2) peptide …, position 248, 10 amino acids” was run?
The binding affinity ratio (IC50 of the standard peptide / IC50 of the test peptide) was 0.055.

For “PAP peptide … (position 17, 9 amino acids)”, which binding affinity ratio (IC50 of the standard peptide / IC50 of the test peptide) (HLA-A*2401 (human) [2]) is on record?
Its binding affinity ratio (IC50 of the standard peptide / IC50 of the test peptide) is 0.0016.

Which binding affinity ratio (IC50 of the standard peptide / IC50 of the test peptide) (HLA-A*2401 (human) [2]) does the source give for “PAP peptide … (position 17, 10 amino acids)” here?
Its binding affinity ratio (IC50 of the standard peptide / IC50 of the test peptide) is 0.0007.

With “PAP peptide … (position 22, 10 amino acids)” as the substance, how does the binding affinity ratio (IC50 of the standard peptide / IC50 of the test peptide) (HLA-A*2401 (human) [3]) read?
The binding affinity ratio (IC50 of the standard peptide / IC50 of the test peptide) was 0.0045.

“PAP peptide … (position 23, 9 amino acids)” was tested. Which binding affinity ratio (IC50 of the standard peptide / IC50 of the test peptide) (HLA-A*2401 (human) [2]) did it give?
The binding affinity ratio (IC50 of the standard peptide / IC50 of the test peptide) was 0.0017.

Which binding affinity ratio (IC50 of the standard peptide / IC50 of the test peptide) (HLA-A*2401 (human) [4]) does the source give for “PAP peptide … (position 41, 10 amino acids)” here?
Its binding affinity ratio (IC50 of the standard peptide / IC50 of the test peptide) is 0.0005.

With “PAP peptide … (position 62, 9 amino acids)” as the substance, how does the binding affinity ratio (IC50 of the standard peptide / IC50 of the test peptide) [5] read?
The binding affinity ratio (IC50 of the standard peptide / IC50 of the test peptide) was 0.0013.

“PAP peptide … (position 83, 10 amino acids)” was tested. Which binding affinity ratio (relative to standard peptide) (HLA-A*2401 (human) [6]) did it give?
Its binding affinity ratio (relative to standard peptide) is 0.0067.

How did the binding affinity ratio (IC50 of the standard peptide / IC50 of the test peptide) [5] turn out when “PAP peptide … (position 96, 9 amino acids)” was run?
The binding affinity ratio (IC50 of the standard peptide / IC50 of the test peptide) was 0.26.

With “PAP peptide … (position 123, 9 amino acids)” as the substance, how does the binding affinity ratio (IC50 of the standard peptide / IC50 of the test peptide) (HLA-A*2401 (human) [3]) read?
The binding affinity ratio (IC50 of the standard peptide / IC50 of the test peptide) was 0.0033.

For “PAP peptide … (position 123, 10 amino acids)”, which binding affinity ratio (IC50 of the standard peptide / IC50 of the test peptide) (HLA-A*2401 (human) [3]) is on record?
The binding affinity ratio (IC50 of the standard peptide / IC50 of the test peptide) was 0.014.

“PAP peptide … (position 183, 9 amino acids)” was tested. Which binding affinity ratio (IC50 of standard peptide / IC50 of test peptide) (HLA-A*2401 (human) [7]) did it give?
Its binding affinity ratio (IC50 of standard peptide / IC50 of test peptide) is 0.11.

How did the binding affinity ratio (IC50 of the standard peptide / IC50 of the test peptide) (HLA-A*2401 (human) [3]) turn out when “PAP peptide … (position 205, 9 amino acids)” was run?
The binding affinity ratio (IC50 of the standard peptide / IC50 of the test peptide) was 0.0024.

With “PAP peptide … (position 302, 9 amino acids)” as the substance, how does the binding affinity ratio (IC50 of the standard peptide / IC50 of the test peptide) (HLA-A*2401 (human) [8]) read?
Its binding affinity ratio (IC50 of the standard peptide / IC50 of the test peptide) is 0.032.

How did the binding affinity ratio (IC50 of standard peptide / IC50 of test peptide) (HLA-A*2401 (human) [7]) turn out when “PAP peptide … (position 309, 10 amino acids)” was run?
Its binding affinity ratio (IC50 of standard peptide / IC50 of test peptide) is 0.024.

With “PSA peptide … (position 2, 9 amino acids)” as the substance, how does the binding affinity ratio (IC50 of the standard peptide / IC50 of the test peptide) (HLA-A*2401 (human) [4]) read?
Its binding affinity ratio (IC50 of the standard peptide / IC50 of the test peptide) is 2.1.

“PSA peptide … (position 2, 10 amino acids)” was tested. Which binding affinity ratio (IC50 of the standard peptide / IC50 of the test peptide) (HLA-A*2401 (human) [4]) did it give?
The binding affinity ratio (IC50 of the standard peptide / IC50 of the test peptide) was 0.0062.

“PSA peptide … (position 9, 9 amino acids)” was tested. Which binding affinity ratio (IC50 of the standard peptide / IC50 of the test peptide) (HLA-A*2401 (human) [4]) did it give?
The binding affinity ratio (IC50 of the standard peptide / IC50 of the test peptide) was 0.11.

Which binding affinity ratio (IC50 of the standard peptide / IC50 of the test peptide) (HLA-A*2401 (human) [4]) does the source give for “PSA peptide … (position 9, 10 amino acids)” here?
The binding affinity ratio (IC50 of the standard peptide / IC50 of the test peptide) was 0.36.

How did the binding affinity ratio (relative to standard peptide) (HLA-A*2401 (human) [6]) turn out when “PSA peptide … (position 98, 9 amino acids)” was run?
Its binding affinity ratio (relative to standard peptide) is 0.0001.

Which binding affinity ratio (IC50 of the standard peptide / IC50 of the test peptide) (HLA-A*2401 (human) [3]) does the source give for “PSA peptide … (position 190, 9 amino acids)” here?
Its binding affinity ratio (IC50 of the standard peptide / IC50 of the test peptide) is 0.031.

For “PSA peptide … (position 224, 9 amino acids)”, which binding affinity ratio (IC50 of the standard peptide / IC50 of the test peptide) [5] is on record?
The binding affinity ratio (IC50 of the standard peptide / IC50 of the test peptide) was 0.0001.

How did the binding affinity ratio (IC50 of the standard peptide / IC50 of the test peptide) (HLA-A*2401 (human) [1]) turn out when “PSA peptide …, position 152, 10 amino acids” was run?
The binding affinity ratio (IC50 of the standard peptide / IC50 of the test peptide) was 0.0001.

With “PSA peptide …, position 244, 10 amino acids” as the substance, how does the binding affinity ratio (IC50 of the standard peptide / IC50 of the test peptide) (HLA-A*2401 (human) [1]) read?
The binding affinity ratio (IC50 of the standard peptide / IC50 of the test peptide) was 0.055.

For “PSM peptide … (position 31, 9 amino acids)”, which binding affinity ratio (IC50 of the standard peptide / IC50 of the test peptide) (HLA-A*2401 (human) [2]) is on record?
Its binding affinity ratio (IC50 of the standard peptide / IC50 of the test peptide) is 0.019.

Which binding affinity ratio (IC50 of the standard peptide / IC50 of the test peptide) (HLA-A*2401 (human) [2]) does the source give for “PSM peptide … (position 32, 10 amino acids)” here?
The binding affinity ratio (IC50 of the standard peptide / IC50 of the test peptide) was 0.0026.

How did the binding affinity ratio (IC50 of standard peptide / IC50 of test peptide) (HLA-A*2401 (human) [7]) turn out when “PSM peptide … (position 178, 9 amino acids)” was run?
The binding affinity ratio (IC50 of standard peptide / IC50 of test peptide) was 0.77.

For “PSM peptide … (position 565, 10 amino acids)”, which binding affinity ratio (IC50 of the standard peptide / IC50 of the test peptide) (HLA-A*2401 (human) [2]) is on record?
Its binding affinity ratio (IC50 of the standard peptide / IC50 of the test peptide) is 1.1.

How did the binding affinity ratio (IC50 of the standard peptide / IC50 of the test peptide) (HLA-A*2401 (human) [2]) turn out when “PSM peptide … (position 582, 10 amino acids)” was run?
Its binding affinity ratio (IC50 of the standard peptide / IC50 of the test peptide) is 0.0002.

How did the binding affinity ratio (IC50 of the standard peptide / IC50 of the test peptide) (HLA-A*2401 (human) [3]) turn out when “PSM peptide … (position 606, 9 amino acids)” was run?
The binding affinity ratio (IC50 of the standard peptide / IC50 of the test peptide) was 12.

For “PSM peptide … (position 621, 9 amino acids)”, which binding affinity ratio (relative to standard peptide) (HLA-A*2401 (human) [6]) is on record?
Its binding affinity ratio (relative to standard peptide) is 0.001.

With “PSM peptide … (position 624, 10 amino acids)” as the substance, how does the binding affinity ratio (IC50 of the standard peptide / IC50 of the test peptide) (HLA-A*2401 (human) [4]) read?
Its binding affinity ratio (IC50 of the standard peptide / IC50 of the test peptide) is 3.2.

For “PSM peptide … (position 638, 9 amino acids)”, which binding affinity ratio (IC50 of standard peptide / IC50 of test peptide) (HLA-A*2401 (human) [7]) is on record?
The binding affinity ratio (IC50 of standard peptide / IC50 of test peptide) was 0.0001.

For “PSM peptide …, position 409, 10 amino acids”, which binding affinity ratio (IC50 of the standard peptide / IC50 of the test peptide) (HLA-A*2401 (human) [1]) is on record?
Its binding affinity ratio (IC50 of the standard peptide / IC50 of the test peptide) is 0.054.

“… (PAP, position 70, 10 amino acids) (peptide)” was tested. Which binding affinity ratio (IC50 of the standard peptide / IC50 of the test peptide) (HLA-A*2401 (human) [2]) did it give?
The binding affinity ratio (IC50 of the standard peptide / IC50 of the test peptide) was 0.0022.

… (PAP, position 96) (peptide) was tested. Which binding affinity ratio (IC50 of standard peptide / IC50 of test peptide) (HLA-A*2401 (human) [9]) did it give?
The binding affinity ratio (IC50 of standard peptide / IC50 of test peptide) was 0.26.

With “… (PAP, position 213, 9 amino acids) (peptide)” as the substance, how does the binding affinity ratio (IC50 of the standard peptide / IC50 of the test peptide) (HLA-A*2401 (human) [2]) read?
The binding affinity ratio (IC50 of the standard peptide / IC50 of the test peptide) was 0.44.

“… (PAP, position 318, 9 amino acids) (peptide)” was tested. Which binding affinity ratio (IC50 of the standard peptide / IC50 of the test peptide) (HLA-A*2401 (human) [2]) did it give?
Its binding affinity ratio (IC50 of the standard peptide / IC50 of the test peptide) is 2.5.

How did the binding affinity ratio (IC50 of standard peptide / IC50 of test peptide) (HLA-A*2401 (human) [9]) turn out when … (PSA, position 54) (peptide) was run?
The binding affinity ratio (IC50 of standard peptide / IC50 of test peptide) was 0.0007.

Which binding affinity ratio (IC50 of the standard peptide / IC50 of the test peptide) (HLA-A*2401 (human) [2]) does the source give for “… (PSA, position 96, 11 amino acids) (peptide)” here?
The binding affinity ratio (IC50 of the standard peptide / IC50 of the test peptide) was 0.12.

For … (PSA, position 224) (peptide), which binding affinity ratio (IC50 of standard peptide / IC50 of test peptide) (HLA-A*2401 (human) [9]) is on record?
The binding affinity ratio (IC50 of standard peptide / IC50 of test peptide) was 0.0001.

For “… (PSM, position 74, 10 amino acids) (peptide)”, which binding affinity ratio (IC50 of the standard peptide / IC50 of the test peptide) (HLA-A*2401 (human) [2]) is on record?
The binding affinity ratio (IC50 of the standard peptide / IC50 of the test peptide) was 0.23.

Which binding affinity ratio (IC50 of standard peptide / IC50 of test peptide) (HLA-A*2401 (human) [9]) does the source give for … (PSM, position 178) (peptide) here?
The binding affinity ratio (IC50 of standard peptide / IC50 of test peptide) was 0.77.

Which binding affinity ratio (IC50 of the standard peptide / IC50 of the test peptide) (HLA-A*2401 (human) [2]) does the source give for “… (PSM, position 227, 9 amino acids) (peptide)” here?
Its binding affinity ratio (IC50 of the standard peptide / IC50 of the test peptide) is 0.44.

Which binding affinity ratio (IC50 of standard peptide / IC50 of test peptide) (HLA-A*2401 (human) [9]) does the source give for … (PSM, position 624) (peptide) here?
Its binding affinity ratio (IC50 of standard peptide / IC50 of test peptide) is 3.2.

“… (PSM, position 668, 9 amino acids) (peptide)” was tested. Which binding affinity ratio (IC50 of the standard peptide / IC50 of the test peptide) (HLA-A*2401 (human) [2]) did it give?
Its binding affinity ratio (IC50 of the standard peptide / IC50 of the test peptide) is 0.0075.
